In publication PMC5127643, “Dynamic control of Hsf1 during heat shock by a chaperone switch and phosphorylation” (eLife, 2016):

T1: 3xFLAG-Hsf1 (S. cerevisiae, UniProt P10961 1-833)
T1 construct: The text prints 3xFLAG-Hsf1 and the legend prints rHsf1-3xFLAG, so the tag end is left open; also called rHsf1-3xFLAG; rHsf1; source: construct not described in the methods
T1 sequence (looked up): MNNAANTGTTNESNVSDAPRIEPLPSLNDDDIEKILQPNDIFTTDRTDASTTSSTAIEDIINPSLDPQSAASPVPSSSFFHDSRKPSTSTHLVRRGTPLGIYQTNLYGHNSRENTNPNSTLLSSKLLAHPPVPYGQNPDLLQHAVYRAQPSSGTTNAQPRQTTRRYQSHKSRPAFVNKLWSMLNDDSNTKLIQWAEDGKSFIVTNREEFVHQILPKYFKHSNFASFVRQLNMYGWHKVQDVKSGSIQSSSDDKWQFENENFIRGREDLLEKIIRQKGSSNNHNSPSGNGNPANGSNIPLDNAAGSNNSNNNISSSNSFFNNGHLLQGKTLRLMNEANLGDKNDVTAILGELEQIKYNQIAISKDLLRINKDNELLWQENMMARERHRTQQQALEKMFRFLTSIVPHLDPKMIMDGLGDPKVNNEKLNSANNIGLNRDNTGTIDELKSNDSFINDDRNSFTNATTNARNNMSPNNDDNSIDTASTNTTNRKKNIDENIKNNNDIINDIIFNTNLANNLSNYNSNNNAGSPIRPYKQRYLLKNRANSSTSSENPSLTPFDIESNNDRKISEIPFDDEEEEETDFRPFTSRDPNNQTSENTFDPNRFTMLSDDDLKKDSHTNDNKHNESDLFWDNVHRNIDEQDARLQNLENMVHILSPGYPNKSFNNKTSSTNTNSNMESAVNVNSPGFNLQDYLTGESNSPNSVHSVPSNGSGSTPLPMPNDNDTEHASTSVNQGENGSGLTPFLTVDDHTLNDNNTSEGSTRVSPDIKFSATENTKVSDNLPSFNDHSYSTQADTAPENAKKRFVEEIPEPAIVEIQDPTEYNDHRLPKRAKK

T2: Hsf1-6xHIS phosphorylated in vitro by casein kinase II (S. cerevisiae, UniProt P10961 1-833, phosphorylated by casein kinase II (mobility shift); sites not stated)
T2 construct: Full-length wild type HSF1 cloned into pET32b with a C-terminal 6x-HIS tag; also called rHsf1 pre-incubated with ATP and active CKII; phosphorylated Hsf1; source: E. coli BL21(DE3), purified (Ni-NTA agarose), then phosphorylated in vitro with casein kinase II (NEB); not shown: 6xHIS, C-terminal, kept
T2 sequence (looked up): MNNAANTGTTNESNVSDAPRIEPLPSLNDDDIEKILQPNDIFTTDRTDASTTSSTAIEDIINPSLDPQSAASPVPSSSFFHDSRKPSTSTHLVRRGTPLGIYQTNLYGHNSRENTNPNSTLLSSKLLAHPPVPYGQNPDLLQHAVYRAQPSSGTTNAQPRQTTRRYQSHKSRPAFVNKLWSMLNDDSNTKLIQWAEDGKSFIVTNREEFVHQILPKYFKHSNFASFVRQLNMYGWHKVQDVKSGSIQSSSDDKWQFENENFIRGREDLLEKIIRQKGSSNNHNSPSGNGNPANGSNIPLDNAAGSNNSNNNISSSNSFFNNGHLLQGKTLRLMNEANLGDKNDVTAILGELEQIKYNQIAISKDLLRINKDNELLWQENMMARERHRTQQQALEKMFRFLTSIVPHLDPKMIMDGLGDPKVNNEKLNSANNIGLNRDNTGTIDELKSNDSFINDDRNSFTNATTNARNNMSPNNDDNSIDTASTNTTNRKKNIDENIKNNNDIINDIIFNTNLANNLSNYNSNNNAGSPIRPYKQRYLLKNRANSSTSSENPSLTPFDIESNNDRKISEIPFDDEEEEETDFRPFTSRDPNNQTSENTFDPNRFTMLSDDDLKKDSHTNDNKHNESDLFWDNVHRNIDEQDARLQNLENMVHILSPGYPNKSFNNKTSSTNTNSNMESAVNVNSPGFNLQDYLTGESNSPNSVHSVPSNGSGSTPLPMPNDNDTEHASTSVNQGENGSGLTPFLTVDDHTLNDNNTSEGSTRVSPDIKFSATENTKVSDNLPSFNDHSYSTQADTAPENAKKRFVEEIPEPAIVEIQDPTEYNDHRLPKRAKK

T3: Hsf1-6xHIS (S. cerevisiae, UniProt P10961 1-833)
T3 construct: Full-length wild type HSF1 cloned into pET32b with a C-terminal 6x-HIS tag; pET32b normally adds N-terminal thioredoxin, His and S tags; Plasmids are in Supplementary file 2; also called rHsf1; recombinant Hsf1; source: E. coli BL21(DE3), purified (Ni-NTA agarose, imidazole elution); not shown: 6xHIS, C-terminal, kept
T3 sequence (looked up): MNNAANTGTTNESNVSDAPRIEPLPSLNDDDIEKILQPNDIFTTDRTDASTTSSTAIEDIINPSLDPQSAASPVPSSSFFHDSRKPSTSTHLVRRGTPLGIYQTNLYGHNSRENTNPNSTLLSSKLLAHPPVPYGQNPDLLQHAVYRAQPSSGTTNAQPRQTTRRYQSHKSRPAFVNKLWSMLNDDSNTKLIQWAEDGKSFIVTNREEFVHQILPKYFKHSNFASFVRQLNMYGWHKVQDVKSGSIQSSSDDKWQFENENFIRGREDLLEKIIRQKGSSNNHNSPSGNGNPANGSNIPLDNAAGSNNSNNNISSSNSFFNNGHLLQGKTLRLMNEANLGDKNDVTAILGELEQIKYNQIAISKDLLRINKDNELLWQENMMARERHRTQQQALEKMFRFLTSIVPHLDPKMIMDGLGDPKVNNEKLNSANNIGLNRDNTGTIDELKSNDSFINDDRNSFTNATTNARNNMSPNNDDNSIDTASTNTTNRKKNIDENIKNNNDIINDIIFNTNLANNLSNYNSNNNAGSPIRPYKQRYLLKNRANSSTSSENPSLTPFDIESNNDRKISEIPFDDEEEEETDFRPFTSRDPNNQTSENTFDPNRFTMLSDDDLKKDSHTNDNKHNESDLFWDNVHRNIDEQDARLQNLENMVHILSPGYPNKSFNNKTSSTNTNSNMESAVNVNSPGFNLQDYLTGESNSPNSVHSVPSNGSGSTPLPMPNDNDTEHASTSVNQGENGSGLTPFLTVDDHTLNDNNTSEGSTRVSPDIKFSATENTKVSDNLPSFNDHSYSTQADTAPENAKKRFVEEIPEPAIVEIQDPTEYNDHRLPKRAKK


Legend:
Settings in all cases: both partners purified
3xFLAG-Hsf1 = biological target: T1, 3xFLAG-Hsf1; assay: co-IP; anti-FLAG IP of recombinant proteins with rHsf1-3xFLAG as bait, Western blot anti-HIS for rSsa2; IP buffer alone or with 1 mM ATP
Aβ42 peptide = biological target: T4, Aβ42 peptide (UniProt P05067 672-713); assay: co-IP; anti-FLAG IP of recombinant proteins with rHsf1-3xFLAG as bait, in the presence of five-fold molar excess (25 µM) of Aβ42 peptide as competitor
T4 construct: also called hydrophobic peptide

[1] = biological target: T2, Hsf1-6xHIS phosphorylated in vitro by …; assay: co-IP; anti-FLAG IP of recombinant proteins with 3xFLAG-rSsa2 as bait; rHsf1 pre-incubated with ATP alone, ATP and active CKII, or ATP and boiled CKII; Western blot anti-HIS for rHsf1
Hsf1-6xHIS = biological target: T3, Hsf1-6xHIS; assay: as above

T4 sequence (P05067 672-713): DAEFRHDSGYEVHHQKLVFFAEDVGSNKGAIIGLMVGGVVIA

binding result (3xFLAG-Hsf1)	binding result (Aβ42 peptide)	binding result [1]	binding result (Hsf1-6xHIS)	Binder
binds	binds			recombinant Ssa2 (HIS-tagged, tags reversed) (natural protein, also called rSsa2; source: construct not described in the methods) not shown
		binds	binds	6xHIS-3xFLAG-Ssa2 (natural protein, Full length SSA2 cloned into pET32b with an N-terminal 6xHIS-3xFLAG tag; pET32b normally adds N-terminal thioredoxin, His and S tags; Plasmids are in Supplementary file 2; also called FLAG-rSsa2; 3xFLAG-rSsa2; source: E. coli BL21(DE3), purified (Ni-NTA agarose, imidazole elution); not shown: 6xHIS, N-terminal, kept; 3xFLAG, N-terminal, kept) not shown
